The results in this text go back to US20240025995A1.

Experiment [1] has as its target human FcγRIIb on CHOK1 cells overexpressing FcγRIIb (human) (UniProt P31994). In words: flow cytometry on CHOK1 cells overexpressing FcγRIIb; detection with anti-human kappa antibody.
The target of experiment [2] is human FcγRIIa (R131) on CHOK1 cells overexpressing FcγRIIa (R131) (human) (UniProt P12318). Kind of experiment: flow cytometry on CHOK1 cells overexpressing FcγRIIa (R131); detection with anti-human kappa antibody. A general note: A flow cytometer gives signals particle by particle.
Sequence of UniProt P12318 (P12318 34-317 H167R): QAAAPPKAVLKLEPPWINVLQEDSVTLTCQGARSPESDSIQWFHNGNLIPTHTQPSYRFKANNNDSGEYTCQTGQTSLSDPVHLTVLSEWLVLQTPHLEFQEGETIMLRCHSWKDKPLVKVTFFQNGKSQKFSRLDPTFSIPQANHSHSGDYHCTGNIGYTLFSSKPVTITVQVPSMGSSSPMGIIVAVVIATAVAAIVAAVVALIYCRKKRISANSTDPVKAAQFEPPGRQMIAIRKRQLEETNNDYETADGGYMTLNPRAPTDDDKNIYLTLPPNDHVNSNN

Sequence of UniProt P31994 (P31994 43-310): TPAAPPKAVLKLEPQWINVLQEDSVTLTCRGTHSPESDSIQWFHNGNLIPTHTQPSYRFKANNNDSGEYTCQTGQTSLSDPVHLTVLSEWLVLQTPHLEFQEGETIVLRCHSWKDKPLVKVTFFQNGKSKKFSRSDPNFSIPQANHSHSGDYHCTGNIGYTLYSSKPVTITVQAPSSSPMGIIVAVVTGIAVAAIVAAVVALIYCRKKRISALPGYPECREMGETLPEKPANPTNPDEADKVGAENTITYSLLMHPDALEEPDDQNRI

“anti-LAG3 SELF (from UniProt P01857 1-330) (antibody)” showed a Log EC50 in experiment [1] of -0.0779.
As for “anti-RSV AAA (from UniProt P01857 1-330) (antibody)”, the Log EC50 was 4.42 in experiment [1] and 3.9 in experiment [2].
